T1: human CD11a (human) (UniProt P20701)
T1 sequence (looked up): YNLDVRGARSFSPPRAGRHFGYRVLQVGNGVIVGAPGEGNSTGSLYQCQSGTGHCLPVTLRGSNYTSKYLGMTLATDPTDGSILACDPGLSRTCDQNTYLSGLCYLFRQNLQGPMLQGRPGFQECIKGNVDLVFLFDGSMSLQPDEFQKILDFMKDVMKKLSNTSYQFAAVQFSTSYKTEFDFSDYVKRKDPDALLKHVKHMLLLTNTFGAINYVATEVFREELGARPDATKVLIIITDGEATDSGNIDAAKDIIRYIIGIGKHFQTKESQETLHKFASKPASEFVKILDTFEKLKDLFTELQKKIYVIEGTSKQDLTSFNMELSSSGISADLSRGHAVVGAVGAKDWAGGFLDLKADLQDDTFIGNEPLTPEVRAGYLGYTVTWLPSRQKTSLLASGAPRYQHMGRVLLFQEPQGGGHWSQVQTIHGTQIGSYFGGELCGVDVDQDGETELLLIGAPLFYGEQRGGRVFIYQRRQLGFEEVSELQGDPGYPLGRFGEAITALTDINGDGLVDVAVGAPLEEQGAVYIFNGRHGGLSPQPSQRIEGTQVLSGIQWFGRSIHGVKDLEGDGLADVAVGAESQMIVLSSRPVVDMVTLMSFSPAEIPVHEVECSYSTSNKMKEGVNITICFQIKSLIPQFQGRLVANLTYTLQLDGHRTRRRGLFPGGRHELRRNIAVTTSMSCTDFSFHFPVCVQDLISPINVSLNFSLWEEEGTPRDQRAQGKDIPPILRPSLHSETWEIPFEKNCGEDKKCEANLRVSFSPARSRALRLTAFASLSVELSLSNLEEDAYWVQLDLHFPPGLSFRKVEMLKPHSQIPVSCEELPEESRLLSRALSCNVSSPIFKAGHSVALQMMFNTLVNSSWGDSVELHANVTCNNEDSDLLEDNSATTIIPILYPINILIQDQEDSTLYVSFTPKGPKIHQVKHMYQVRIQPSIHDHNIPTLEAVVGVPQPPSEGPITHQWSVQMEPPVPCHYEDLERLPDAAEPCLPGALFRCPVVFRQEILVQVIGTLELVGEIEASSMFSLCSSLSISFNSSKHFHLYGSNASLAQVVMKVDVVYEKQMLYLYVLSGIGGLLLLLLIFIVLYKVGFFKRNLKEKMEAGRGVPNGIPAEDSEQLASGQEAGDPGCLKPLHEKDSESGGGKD


biological target: T1, human CD11a (human); assay: FACScan, Jurkat cells

Row | Binder | Var.EC50/HuIgG1 EC50 | EC50 F(ab)/EC50 F(ab)-2 | fold improvement in binding over F(ab)-2 | Variant EC50/HulgG1 EC50 | fold reduction in binding against F(ab)-2
1 | L2 variant IgG1 (antibody, V domains shown) VH: EVQLVESGGGLVQPGGSLRLSCAASGYSFTGHWMNWVRQAPGKGLEWVGMIHPSDSETRYNQKFKDRFTISVDKSKNTLYLQMNSLRAEDTAVYYCARGIYFYGTTYFDYWGQGTLVTVSS VL: DIQMTQSPSSLSASVGDRVTITCRASKTISKYLAWYQQKPGKAPKLLIYAGAALQSGVPSRFSGSGSGTDFTLTISSLQPEDFATYYCQQHNEYPLTFGQGTKVEIKR | 1.1 | – | – | – | –
2 | LysH73Ala variant IgG1 (antibody, V domains shown) VH: EVQLVESGGGLVQPGGSLRLSCAASGYSFTGHWMNWVRQAPGKGLEWVGMIHPSDSETRYNQKFKDRFTISVDASKNTLYLQMNSLRAEDTAVYYCARGIYFYGTTYFDYWGQGTLVTVSS VL: DIQMTQSPSSLSASVGDRVTITCRASKTISKYLAWYQQKPGKAPKLLIYSGSTLQSGVPSRFSGSGSGTDFTLTISSLQPEDFATYYCQQHNEYPLTFGQGTKVEIK | 5.2 | – | – | – | –
3 | H2C11 variant IgG1 (antibody, V domains shown) VH: EVQLVESGGGLVQPGGSLRLSCAASGYSFTGHWMNWVRQAPGKGLEWVGMIAPASSNTRYNQKFKDRFTISVDKSKNTLYLQMNSLRAEDTAVYYCARGIYFYGTTYFDYWGQGTLVTVSS VL: DIQMTQSPSSLSASVGDRVTITCRASKTISKYLAWYQQKPGKAPKLLIYSGSTLQSGVPSRFSGSGSGTDFTLTISSLQPEDFATYYCQQHNEYPLTFGQGTKVEIK | 24.9 | – | – | – | –
4 | TyrL94Ala variant IgG1 (antibody, V domains shown) VH: EVQLVESGGGLVQPGGSLRLSCAASGYSFTGHWMNWVRQAPGKGLEWVGMIHPSDSETRYNQKFKDRFTISVDKSKNTLYLQMNSLRAEDTAVYYCARGIYFYGTTYFDYWGQGTLVTVSS VL: DIQMTQSPSSLSASVGDRVTITCRASKTISKYLAWYQQKPGKAPKLLIYSGSTLQSGVPSRFSGSGSGTDFTLTISSLQPEDFATYYCQQHNEAPLTFGQGTKVEIKR | 11.8 | – | – | – | –
5 | SerH55Asn variant IgG1 (antibody, V domains shown) VH: EVQLVESGGGLVQPGGSLRLSCAASGYSFTGHWMNWVRQAPGKGLEWVGMIHPSDNETRYNQKFKDRFTISVDKSKNTLYLQMNSLRAEDTAVYYCARGIYFYGTTYFDYWGQGTLVTVSS VL: DIQMTQSPSSLSASVGDRVTITCRASKTISKYLAWYQQKPGKAPKLLIYSGSTLQSGVPSRFSGSGSGTDFTLTISSLQPEDFATYYCQQHNEYPLTFGQGTKVEIK | 2.1 | – | – | – | –
6 | humanized MHM24 F(ab)-5 (Fab, V domains shown) VH: EVQLVESGGGLVQPGGSLRLSCAASGFSFTGHWMNWVRQAPGKGLEWVGMIHPSDSETRYNQKFKDRFTISVDKSSSTLYLQMNSLRAEDTAVYYCARGIYFYGTTYFDYWGQGTLVTVSS VL: DIQMTQSPSSLSASVGDRVTITCRASKTISKYLAWYQQKPGKAPKLLIYSGSSLESGVPSRFSGSGSGTDFTLTISSLQPEDFATYYCQQHNEYPLTFGQGTKVEIK | – | 0.043 | 23 fold | – | –
7 | humanized MHM24 F(ab)-3 (Fab, V domains shown) VH: EVQLVESGGGLVQPGGSLRLSCAASGFSFTGHWMNWVRQAPGKGLEWVGMIHPSDSETRYNQKFKDRATISVDNSKNTLYLQMNSLRAEDTAVYYCARGIYFYGTTYFDYWGQGTLVTVSS VL: DIQMTQSPSSLSASVGDRVTITCRASKTISKYLAWYQQKPGKAPKLLIYSGSSLESGVPSRFSGSGSGTDFTLTISSLQPEDFATYYCQQHNEYPLTFGQGTKVEIK | – | 1.2 | – | – | –
8 | HisH52Ser variant IgG1 (antibody, V domains shown) VH: EVQLVESGGGLVQPGGSLRLSCAASGYSFTGHWMNWVRQAPGKGLEWVGMISPSDSETRYNQKFKDRFTISVDKSKNTLYLQMNSLRAEDTAVYYCARGIYFYGTTYFDYWGQGTLVTVSS VL: DIQMTQSPSSLSASVGDRVTITCRASKTISKYLAWYQQKPGKAPKLLIYSGSTLQSGVPSRFSGSGSGTDFTLTISSLQPEDFATYYCQQHNEYPLTFGQGTKVEIK | 5 | – | – | – | –
9 | humanized MHM24 F(ab)-8 (Fab, V domains shown) VH: EVQLVESGGGLVQPGGSLRLSCAASGYSFTGHWMNWVRQAPGKGLEWVGMIHPSDSETRYNQKFKDRFTISVDKSKNTLYLQMNSLRAEDTAVYYCARGIYFYGTTYFDYWGQGTLVTVSS VL: DIQMTQSPSSLSASVGDRVTITCRASKTISKYLAWYQQKPGKAPKLLIYSGSTLQSGVPSRFSGSGSGTDFTLTISSLQPEDFATYYCQQHNEYPLTFGQGTKVEIKR | – | 0.004 | – | – | –
10 | AspH54Glu variant IgG1 (antibody, V domains shown) VH: EVQLVESGGGLVQPGGSLRLSCAASGYSFTGHWMNWVRQAPGKGLEWVGMIHPSESETRYNQKFKDRFTISVDKSKNTLYLQMNSLRAEDTAVYYCARGIYFYGTTYFDYWGQGTLVTVSS VL: DIQMTQSPSSLSASVGDRVTITCRASKTISKYLAWYQQKPGKAPKLLIYSGSTLQSGVPSRFSGSGSGTDFTLTISSLQPEDFATYYCQQHNEYPLTFGQGTKVEIK | – | – | – | 16 | –
11 | H3B variant IgG1 (antibody, V domains shown) VH: EVQLVESGGGLVQPGGSLRLSCAASGYSFTGHWMNWVRQAPGKGLEWVGMIHPSDSETRYNQKFKDRFTISVDKSKNTLYLQMNSLRAEDTAVYYCARGIYFYGAAAFDYWGQGTLVTVSS VL: DIQMTQSPSSLSASVGDRVTITCRASKTISKYLAWYQQKPGKAPKLLIYSGSTLQSGVPSRFSGSGSGTDFTLTISSLQPEDFATYYCQQHNEYPLTFGQGTKVEIK | 34.7 | – | – | – | –
12 | SerH28Ala variant IgG1 (antibody, V domains shown) VH: EVQLVESGGGLVQPGGSLRLSCAASGYAFTGHWMNWVRQAPGKGLEWVGMIHPSDSETRYNQKFKDRFTISVDKSKNTLYLQMNSLRAEDTAVYYCARGIYFYGTTYFDYWGQGTLVTVSS VL: DIQMTQSPSSLSASVGDRVTITCRASKTISKYLAWYQQKPGKAPKLLIYSGSTLQSGVPSRFSGSGSGTDFTLTISSLQPEDFATYYCQQHNEYPLTFGQGTKVEIK | 6.9 | – | – | – | –
13 | H1 variant IgG1 (antibody, V domains shown) VH: EVQLVESGGGLVQPGGSLRLSCAASGYAFAGAWMNWVRQAPGKGLEWVGMIHPSDSETRYNQKFKDRFTISVDKSKNTLYLQMNSLRAEDTAVYYCARGIYFYGTTYFDYWGQGTLVTVSS VL: DIQMTQSPSSLSASVGDRVTITCRASKTISKYLAWYQQKPGKAPKLLIYSGSTLQSGVPSRFSGSGSGTDFTLTISSLQPEDFATYYCQQHNEYPLTFGQGTKVEIK | 5.9 | – | – | – | –
14 | TyrH97Ala variant IgG1 (antibody, V domains shown) VH: EVQLVESGGGLVQPGGSLRLSCAASGYSFTGHWMNWVRQAPGKGLEWVGMIHPSDSETRYNQKFKDRFTISVDKSKNTLYLQMNSLRAEDTAVYYCARGIAFYGTTYFDYWGQGTLVTVSS VL: DIQMTQSPSSLSASVGDRVTITCRASKTISKYLAWYQQKPGKAPKLLIYSGSTLQSGVPSRFSGSGSGTDFTLTISSLQPEDFATYYCQQHNEYPLTFGQGTKVEIK | 10.9 | – | – | – | –
15 | humanized MHM24 F(ab)-4 (Fab, V domains shown) VH: EVQLVESGGGLVQPGGSLRLSCAASGFSFTGHWMNWVRQAPGKGLEWVGMIHPSDSETRYNQKFKDRFTISRDNSKNTLYLQMNSLRAEDTAVYYCARGIYFYGTTYFDYWGQGTLVTVSS VL: DIQMTQSPSSLSASVGDRVTITCRASKTISKYLAWYQQKPGKAPKLLIYSGSSLESGVPSRFSGSGSGTDFTLTISSLQPEDFATYYCQQHNEYPLTFGQGTKVEIK | – | 2.9 | – | – | 3 fold
16 | TyrH99Ala variant IgG1 (antibody, V domains shown) VH: EVQLVESGGGLVQPGGSLRLSCAASGYSFTGHWMNWVRQAPGKGLEWVGMIHPSDSETRYNQKFKDRFTISVDKSKNTLYLQMNSLRAEDTAVYYCARGIYFAGTTYFDYWGQGTLVTVSS VL: DIQMTQSPSSLSASVGDRVTITCRASKTISKYLAWYQQKPGKAPKLLIYSGSTLQSGVPSRFSGSGSGTDFTLTISSLQPEDFATYYCQQHNEYPLTFGQGTKVEIK | 1.4 | – | – | – | –
17 | ThrH100aAla variant IgG1 (antibody, V domains shown) VH: EVQLVESGGGLVQPGGSLRLSCAASGYSFTGHWMNWVRQAPGKGLEWVGMIHPSDSETRYNQKFKDRFTISVDKSKNTLYLQMNSLRAEDTAVYYCARGIYFYGATYFDYWGQGTLVTVSS VL: DIQMTQSPSSLSASVGDRVTITCRASKTISKYLAWYQQKPGKAPKLLIYSGSTLQSGVPSRFSGSGSGTDFTLTISSLQPEDFATYYCQQHNEYPLTFGQGTKVEIK | 2.3 | – | – | – | –
18 | HisH32Ala variant IgG1 (antibody, V domains shown) VH: EVQLVESGGGLVQPGGSLRLSCAASGYSFTGAWMNWVRQAPGKGLEWVGMIHPSDSETRYNQKFKDRFTISVDKSKNTLYLQMNSLRAEDTAVYYCARGIYFYGTTYFDYWGQGTLVTVSS VL: DIQMTQSPSSLSASVGDRVTITCRASKTISKYLAWYQQKPGKAPKLLIYSGSTLQSGVPSRFSGSGSGTDFTLTISSLQPEDFATYYCQQHNEYPLTFGQGTKVEIK | 2.3 | – | – | – | –

— EP1516629B1
